Consider 2 molecules from article PMC10867769, “Grafting the ALFA tag for structural studies of aquaporin Z” (Journal of Structural Biology: X, 2024).

In general, stoichiometry N refers to a count of units in the complex or per binding partner.

Data set [1] concerns the target octameric (AqpZ-ALFA)4(nB)4 complex (E. coli) (UniProt P60844). The experiment in a line: cryo-EM structure; AqpZ-ALFA incubated with five-fold molar excess of nB in C8E4, complex purified (StrepTrap, Superdex 200), 10 mg/mL, 5-fold molar excess of 18:1 cardiolipin (TOCDL); prepared at room temperature, grid at 5 °C; D4 symmetry, 1.9 Å.
Data set [2] deals with the molecule itself. The data set is described as above.

In data set [1], “octameric (AqpZ-ALFA)4(nB)4 complex (from UniProt P60844 1-227)” yielded a stoichiometry N of 2.

B1: AqpZ-ALFA (E. coli aquaporin Z with the ALFA tag grafted onto its C-terminus, flexible linker and Strep-tag II) (other)
chain: MFRKLAAECFGTFWLVFGGCGSAVLAAGFPELGIGFAGVALAFGLTVLTMAFAVGHISGGHFNPAVTIGLWAGGRFPAKEVVGYVIAQVVGGIVAAALLYLIASGKTGFDAAASGFASNGYGEHSPGGYSMLSALVVELVLSAGFLLVIHGATDKFAPAGFAPIAIGLALTLIHLISIPVTNTSVNPARSTAVAIFQGGWALEQLWFFWVVPIVGGIIGGLIYRTLLRASRLEEELRRRLTEPGGGPG
notes: Aquaporin Z (AqpZ), E. coli, UniProt P60844; from the start up to the printed C-terminal residues IYRTLL; the last residues of the natural protein are replaced by the graft; followed by aswshpqfek (Strep-tag II, written as a tag); Tetramer; also called AqpZ-ALFA-St; source: E. coli BL21-A1, purified (octyl glucoside extraction of membranes, StrepTrap, Superdex 200 in C8E4); not shown: Strep-tag …
Take B1: the “stoichiometry N” value in data set [2] was found to be 4.
